According to the DeepSol protein solubility set:

Assay: soluble on expression in E. coli; label from the status in PepcDB or PDB records

Sequence | soluble on expression in E. coli
MGSDKIHHHHHHMRILWINHRDPKHPQAGGAEVRLYEIARRLVKMGHEVMVLCEKVSRLPGEEVLEGIRIKRSGGRASIHLLAPLYVRKHGHEYDVIVDDIAHAVPWYSPLVTKTPVVAQIHHVHQDVVYIELPKPLAWIVSRAEKTIAKIYRRFIAVSQSTKKELAKRLGIDPDRIAVVPNGVDLEKYRPGSKDPRPTILWAGRIKMYKNLDHLLKAYRIVKQEIPDAQLIIIGTGDQEQKMRELAKKLEPRDVHFLGKMSEQEKIMWMQRAWIIVSTSMIEGWGITITEAAACKIPAIAYNVPGLRDSVKHMETGILVEPGNIEQLAKAIAWLLTDNSLRNKLSENAYNYAQSFSWDNTAITFLNILEDITRI | not soluble
MGSDKIHHHHHHMRDLLSKKSHRQLELLELLFEHKRWFHRSELAELLNCTERAVKDDLSHVKSAFPDLIFHSSTNGIRIINTDDSDIEMVYHHFFKHSTHFSILEFIFFNEGCQAESICKEFYISSSSLYRIISQINKVIKRQFQFEVSLTPVQIIGNERDIRYFFAQYFSEKYYFLEWPFENFSSEPLSQLLELVYKETSFPMNLSTHRMLKLLLVTNLYRIKFGHFMEVDKDSFNDQSLDFLMQAEGIEGVAQSFESEYNISLDEEVVCQLFVSYFQKMFFIDESLFMKCVKKDSYVEKSYHLLSDFIDQISVKYQIEMENKDNLIWHLHNTAHLYRQELFTEFILFDQKGNTIRNFQNIFPKFVSDIKKELSHYLETLEVCSSSMMVNHLSYTFITHTKHLVINLLQNQPKLKVLVMSNFDQYHAKFVAETLSYYCSNNFELEVWTELELSKESLEDSPYDIIISNFIIPPIENKRLIYSNNINTVSLIYLLNAMMFIRLDE | not soluble
MGSDKIHHHHHHMNPQPSGATVDKGSVNPEQISIKTFGGLGLSYLNSPMTILWESQKARILFCYLLISYDQWLHRDKLIDMLWPGCDPVSGAKNFKTTLSRLRKSFMGPRSINPIMTLGEAIRLDFNIFSLDSSQFKGYAQTGIKMLARGDISGARRYLEAAQDEYSGEFLPEEPFDHHICAERAELERLHESVLTSLQKVYQLEGNNDAVEAISFLKAVHTNS | not soluble
MLIRKITRKNPSPDVLEEAISVMEGGGIVIYPTDTIYGLGVNALDEDAVRRLFRVKGRSPHKPVSICVSCVDEIPRFSRPSGDAMELMERILPGPYTVVLERNELIPDVITGGSSRVGIRVPDDEICRRIAARFPVTATSANISGKPPSPRLEEIVRDLDAVDLVLDAGDCLDMEPSTVIDLTVNPPRVLRRGKGPLDPVLLRGAGDV | soluble
MEPSSLELPADTVQRIAAELKCHPTDERVALHLDEEDKLRHFRECFYIPKIQDLPPVDLSLVNKDENAIYFLGNSLGLQPKMVKTYLEEELDKWAKIAAYGHEVGKRPWITGDESIVGLMKDIVGANEKEIALMNALTVNLHLLMLSFFKPTPKRYKILLEAKAFPSDHYAIESQLQLHGLNIEESMRMIKPREGEETLRIEDILEVIEKEGDSIAVILFSGVHFYTGQHFNIPAITKAGQAKGCYVGFDLAHAVGNVELYLHDWGVDFACWCSYKYLNAGAGGIAGAFIHEKHAHTIKPALVGWFGHELSTRFKMDNKLQLIPGVCGFRISNPPILLVCSLHASLEIFKQATMKALRKKSVLLTGYLEYLIKHNYGKDKAATKKPVVNIITPSHVEERGCQLTITFSVPNKDVFQELEKRGVVCDKRNPNGIRVAPVPLYNSFHDVYKFTNLLTSILDSAETKN | soluble
MGSDKIHHHHHHMALRIAFLTVGDPQRRTGGYLYHREVFRCWQARNQPVEEIVLGPADVAGQIAASNRAGQLVEAGRYDVIVVDALARAVVAPWLAHWQRLCPLVTLVHELPTVAGASDPREYEWEQMLLRADALVAVSDDGANTLIARGVEAARIHIASGGCDRLLSRMPVGKAREELVIAVAQWIPRKNLAHLVRVWGQVAEHPWRLELIGESDADPVYAGEVWQAIQHCPANVIVRGVLADDELAERYARASLFALPSRFEGYGLVFAEALACGLPVIAGAVGPVPALVGAGGMLVHPDDEQALSVALRTVMRDAHLRQHLSTAARQRASTLPRWQDTAQHLLCAIEWAYAQRHRVST | not soluble
MSQSTSSEGSGPAAKIARKNSPENDPETAEMFIVDEITDMRYSTTCRQLQFLVKWAIPGSEMTWQPLDDFPFGLNHFSILDYRKDHEEKYEACLQKQRRSKVMKDDDRSWNVSRNSNRSRNRSKSSSKPAQRTEPMTQREKFDAILQISEISLEKQYKLTNKKVPRRSQFTDPDAPKKKSKGARHYRDQNLKTLFKSSLIRKYRKPQESDDDLEPDVAQDSPENTPAPPTKSPESSGFSENLENLGANTPSPSPDFEEEHLEKKPETGNLTENRPKRVYSHETAESMENYAKLLLYTAFDTKSWETLGGHIKNGFRLSFVCSNGLTIIENVVELNKNLNKFSDSRESRMVADLFELLLKKGVEFDEKTLPPTMCAAVRSTRYDIRRDFRCLHNQYIDKRPRMCEWFSATGGGGSCGTTEICTFWNNDAGYLPNTHQRSKFHVDLSEFTGNNLGLLAFSMAWHEDFIDNNSGGPEIVKNNRFNAHIDVPCFTLWMNGKMCEKLENSHGLSIFRPLGTVLDVNELKIKITEHSSRFVAILPVFNLNSDWKNCFFPLENQ | not soluble
WVFFVEDGETIRVRLRSKGPVINTVAMEHNGGGHPMAAGAKAKSWEETDKIV | soluble
MGSDKIHHHHHHMEKILLVDDEQFVLDGLKRQLRRKYAIHTADGGEKGLQLIQSDGPFAVVVSDMRMPEMNGIEFLTQVRRVAPDSIRIMLTGYADQKTAINAINEGAIFRFLTKPCSLENLTVALDAALDQYRLITAEKELLEKTLKGSIKVLVDILSLSAPAAFSQATRLRKYAAQIVARLEFPDSWQYEIAALLSSIGFVNIPPETITKHLIGEKLTGREQEMIDAVPETAGMLLANIPRLSAVALMINRQNTPCSEPTAFKNGDFHEAVRIGANLLKVLTDFDILLIRNYEPEEAIRIMSERIGLYDRTLLNMLAILDLPRRDQGVRNIRIDDLREGMIIDADIRNTHGILVVPKGYEVNESTCQRLKNFLIRQTGAETVRVLMPVYAEEESQ | not soluble
MKEPVKPTVKLAEIPPREPRFTPEQERIYARLSVHDPFNMLSEQHKANLIQLMTHGLGYRPIQLS | not soluble
MASTIKEALSVVSEDQSLFECAYGTPHLAKTEMTASSSSDYGQTSKMSPRVPQQDWLSQPPARVTIKMECNPSQVNGSRNSPDECSVAKGGKMVGSPDTVGMNYGSYMEEKHMPPPNMTTNERRVIVPADPTLWSTDHVRQWLEWAVKEYGLPDVNILLFQNIDGKELCKMTKDDFQRLTPSYNADILLSHLHYLRETPLPHLTSDDVDKALQNSPRLMHARNTGGAAFIFPNTSVYPEATQRITTRPDLPYEPPRRSAWTGHGHPTPQSKAAQPSPSTVPKTEDQRPQLDPYQILGPTSSRLANPGSGQIQLWQFLLELLSDSSNSSCITWEGTNGEFKMTDPDEVARRWGERKSKPNMNYDKLSRALRYYYDKNIMTKVHGKRYAYKFDFHGIAQALQPHPPESSLYKYPSDLPYMGSYHAHPQKMNFVAPHPPALPVTSSSFFAAPNPYWNSPTGGIYPNTRLPTSHMPSHLGTYY | soluble
MKKEEMDVVSLRIIKLYFLGIRELNFPDYNKRFQQKDMELFIQLADMMENLPNLDEQLIYELEELKDYLFYVKTEKYSLTVHDMFLEMKSELEKII | not soluble
MGSDKIHHHHHHMKIEINPVSRIEGHAKVTIFLDSSGKVENAFFQATEFRGYEKILSGLPMEEVPRVVSTICGICRAIHFTAALKAADQVFGVEASDAAKIVREMLLCAHFIEDHTLSLLALALPDFLSPEERNIFGVIRNLGELGRELLRKRGYAVRILQILGGRNIHPVTALPGGWAKAPTDEELGLIERYSRELLDLGYRMVEVLEAALDMGDGLELRAATLGTEKKGLVNLYDGEQVVKDEEGKEVLRFSGKEYADIITEKSLSWSYSKLTEIKPLGEKLYVVGPLARLKTAELTPKASEIVKTYGVSNNLLYNHFARAVEIIYAAERLLELSQSYRGGRIQNEPQKVAGEGVGIVEAPRGTLIHHYWTDEKGIVRGSNLIVATTHNVRAINHVVGKVAERASDTRNLAEKVEVAIRAFDPCMACATHAVNGVIPIEIQIFRDGELEEVYRNYEESCCGSGQSTHS | not soluble
MWRLIYSLLFLIPGAAMAGAQVYEPLSASTRTVLHRTISDQAVPMLVTLPGPEAKDWLDSMTKRLEKRISDIEERRAFLITVHYEATRAGLDPELVLSIIQVESNFRKYAVSSAGARGYMQVMPFWVDTIGNPEHNLFHLRVNLRYGCTILRHYLDLEQGDYFRALGRYNGSLGKAGYPNLVFNAWHRHWTYSTASQ | not soluble
MGSDKIHHHHHHMWGPPWMPDQDGNMTRESGYFQCTNRNKYSVAVDITTPEGQALIYEIAKTADVVIENYKTGSLAKYGLDYASLSELNPNIVYCSITGFGQDGPRAEEPGYDFIIQGMSGLMSITGEPDDVAGGGAQKVGVAVVDIQTGLYSTIAIQAALIARSHTGRGQYIDMSLLDVQVAALANQGMNYLASGKAPQRMGNQHPSIVPYQTFKAKDKEFIIACGNDKQFKDLCIAIGYPELLENEKFVRNQDRVKYRNELIPLLSEHFLRKTAKEWVDMIHALKVPVGVINSIEDALAEPQIVYRNLVVNIPHRLNENFQTIGSPIKLSDTPVEYHHAPPELGEHTAQILSRFKTAEELAALKEKGIIDGKIA | not soluble
MVLLVMKSSTTIITAYFDIGRGDWTANKGFREKLARSVDVYFSYFERLAALENEMIIFTSPDLKPRVEAIRNGKPTTVIVIDIKKKFRYIRSRIEKIQKDESFTNRLEPRQLKNPEYWSPEYVLVCNLKAYFVNKAINMGLVKTPLVAWIDFGYCRKPNVTRGLKIWDFPFDESKMHLFTIKKGLTVTSQQQVFDFMIGNHVYIIGGAIVGSQHKWKEFYKLVLESQKITLNNNIVDDDQGIFVMCYYKRPDLFNLNYLGRGKWFDLFRCFRSNTLGAKMQALRIFLSRK | not soluble
MGSSHHHHHHSQDPLVPRGSGSDYIIKEKTVLLQKKDSEGFGFVLRGAKAQTPIEEFTPTPAFPALQYLESVDEGGVAWRAGLRMGDFLIEVNGQNVVKVGHRQVVNMIRQGGNTLMVKVVMVTRHPDMDEA | soluble
MVLFTRFMLMGIAMPQISRTALVPYSAEQMYQLVNDVQSYPQFLPGCVGSRVLESSPAQMTAAVDVSKAGISKTFTTRNQLTRNQSILMHLVDGPFKKLIGGWKFTPLSPEACRIEFQLDFEFTNKLIELAFGRIFKELASNMVQAFTVRAKEVYRAGLEHHHHHH | not soluble
MSLELIPCGWRRYVEFRMTIVNHISPIHSVDKKGWRWFDENTKNWGFKDMIPAVILNNVNVGFLLNGEITIIAEVEVHEFIDTLNASQVEELSDDSSEDLQNKDNVTIEVNGFQVLDSQVDQVNAIFEKHPDLISNFSLKNQHIRNAYMHALLDLTKTLSKSTKELTVEDMNEADNTITDLIKAGLNLDWLRQKFDQALEKQIAYDTRIGELEKQVKKRKLAVTELEADLEKEKAAASASLMLFDEGHHHHHH | not soluble
NQHLTILRNVSDRKRMEKELRESELKFRKVFNGSMDGNVLFDNQYRIIDANPLASHILGLSHEEIKQHSLLDIISAYEIENLASPARQINFDEMDNEIPFLLSSGDNRKLEFSFKRNIIQ | not soluble
